The data set concerns the target T1, OsNPPR1-repeat-MBP (Oryza sativa (rice), UniProt Q6Z2B6 182-806).
T1 sequence: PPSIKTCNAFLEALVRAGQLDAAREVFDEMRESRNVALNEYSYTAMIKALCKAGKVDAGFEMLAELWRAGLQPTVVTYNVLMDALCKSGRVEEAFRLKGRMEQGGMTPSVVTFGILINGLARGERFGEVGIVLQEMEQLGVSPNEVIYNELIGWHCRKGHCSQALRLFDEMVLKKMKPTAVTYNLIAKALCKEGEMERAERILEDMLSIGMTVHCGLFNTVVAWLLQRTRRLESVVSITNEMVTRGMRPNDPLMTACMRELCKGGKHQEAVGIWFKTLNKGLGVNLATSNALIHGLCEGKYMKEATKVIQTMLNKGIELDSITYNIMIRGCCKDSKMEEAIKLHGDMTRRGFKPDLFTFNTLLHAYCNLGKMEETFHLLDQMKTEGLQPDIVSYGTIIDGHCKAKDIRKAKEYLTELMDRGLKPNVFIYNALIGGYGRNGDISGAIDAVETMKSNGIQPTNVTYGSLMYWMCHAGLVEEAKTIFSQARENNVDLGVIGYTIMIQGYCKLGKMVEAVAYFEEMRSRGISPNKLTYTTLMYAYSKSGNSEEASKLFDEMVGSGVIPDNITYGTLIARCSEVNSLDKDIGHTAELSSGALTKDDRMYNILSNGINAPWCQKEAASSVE
As to the kind of experiment: EMSA. On the technique in general: Mobility shift assays separate free from complexed probe on a gel.

The record followed here is PMC6760278.

B1: CUCAC probe (ssRNA)
RNA: CUCACCUCACCUCACCUCACCUCACCUCAC
On to B1, for which the binding result is “binds”.
